Measured values from patent publication US20100196266A1 (published 2010).

How the values were obtained:
human CD74 on cells [1] = biological target: T1, human CD74 on cells (human, UniProt P04233 1-296); assay: indirect flow cytometry, FITC-GAH Fc, Daudi cells; none 3.2
T1 construct: whole, on cells
T1 sequence (looked up): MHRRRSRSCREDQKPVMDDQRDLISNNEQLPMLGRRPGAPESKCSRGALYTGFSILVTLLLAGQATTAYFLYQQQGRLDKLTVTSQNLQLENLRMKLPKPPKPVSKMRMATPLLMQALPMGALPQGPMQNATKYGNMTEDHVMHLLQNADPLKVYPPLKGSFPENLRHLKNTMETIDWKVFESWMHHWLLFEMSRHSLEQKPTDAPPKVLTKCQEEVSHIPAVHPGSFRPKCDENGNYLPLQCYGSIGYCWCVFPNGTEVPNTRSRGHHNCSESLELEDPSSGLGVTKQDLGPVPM

human CD74 on cells [2] = biological target: T1, human CD74 on cells; assay: indirect FACS, FITC-GAH Fc, Raji cells; none 6.8
human CD74 on cells [3] = biological target: T1, human CD74 on cells; assay: indirect flow cytometry, FITC-GAH Fc, WSU-FSCCL cells; none 2.7
human CD74 on cells [4] = biological target: T1, human CD74 on cells; assay: indirect flow cytometry, FITC-GAH Fc, Raji cells; none 6.9
human CD74 on cells [5] = biological target: T1, human CD74 on cells; assay: indirect FACS, FITC-GAH Fc, WSU-FSCCL cells; none 2.6
human CD74 on cells [6] = biological target: T1, human CD74 on cells; assay: indirect FACS, FITC-GAH Fc, Ramos cells; none 3.1
human CD74 on cells [7] = biological target: T1, human CD74 on cells; assay: indirect flow cytometry, FITC-GAH Fc, Ramos cells; none 3.1
human CD74 on cells [8] = biological target: T1, human CD74 on cells; assay: indirect FACS, FITC-GAH Fc, Daudi cells; none 3.1
human CD74 on cells [9] = biological target: T1, human CD74 on cells; assay: indirect FACS, FITC-GAH Fc, Namalwa cells; none 2.5
human CD74 on cells [10] = biological target: T1, human CD74 on cells; assay: indirect flow cytometry, FITC-GAH Fc, RL cells; none 2.4
human CD74 on cells [11] = biological target: T1, human CD74 on cells; assay: indirect flow cytometry, FITC-GAH Fc, Namalwa cells; none 2.6
human CD74 on cells [12] = biological target: T1, human CD74 on cells; assay: indirect flow cytometry, FITC-GAH Fc, SU-DHL-6 cells; none 4.6
human CD74 on cells [13] = biological target: T1, human CD74 on cells; assay: indirect flow cytometry, Namalwa cells, FITC-GAH; none 2.52
human CD74 on cells [14] = biological target: T1, human CD74 on cells; assay: indirect FACS, FITC-GAH Fc, SU-DHL-6 cells; none 4.6
human CD22 on cells [15] = biological target: T2, human CD22 on cells (human, UniProt P20273 20-847); assay: indirect FACS, FITC-GAH Fc, WSU-FSCCL cells; none 2.6
T2 construct: whole, on cells

human CD22 on cells [16] = biological target: T2, human CD22 on cells; assay: indirect FACS, FITC-GAH Fc, Namalwa cells; none 2.5
human CD22 on cells [17] = biological target: T2, human CD22 on cells; assay: indirect flow cytometry, FITC-GAH Fc, SU-DHL-6 cells; none 4.6
human CD22 on cells [18] = biological target: T2, human CD22 on cells; assay: indirect flow cytometry, Namalwa cells, FITC-GAH; none 2.52
human CD22 on cells [19] = biological target: T2, human CD22 on cells; assay: indirect FACS, FITC-GAH Fc, SU-DHL-6 cells; none 4.6
human CD20 on cells [20] = biological target: T3, human CD20 on cells (human, UniProt P11836 1-297); assay: indirect flow cytometry, FITC-GAH Fc, Daudi cells; none 3.2
T3 construct: whole, on cells
T3 sequence (looked up): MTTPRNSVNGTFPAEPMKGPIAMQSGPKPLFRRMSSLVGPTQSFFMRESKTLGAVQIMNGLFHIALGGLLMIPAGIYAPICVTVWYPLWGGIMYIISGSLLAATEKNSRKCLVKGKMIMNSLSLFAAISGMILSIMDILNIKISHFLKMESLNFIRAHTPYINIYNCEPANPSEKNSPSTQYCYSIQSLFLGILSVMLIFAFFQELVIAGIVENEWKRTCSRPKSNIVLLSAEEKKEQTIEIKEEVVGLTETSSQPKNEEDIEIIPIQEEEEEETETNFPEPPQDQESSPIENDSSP

human CD20 on cells [21] = biological target: T3, human CD20 on cells; assay: indirect FACS, FITC-GAH Fc, Raji cells; none 6.8
human CD20 on cells [22] = biological target: T3, human CD20 on cells; assay: indirect flow cytometry, FITC-GAH Fc, WSU-FSCCL cells; none 2.7
human CD20 on cells [23] = biological target: T3, human CD20 on cells; assay: indirect flow cytometry, FITC-GAH Fc, Raji cells; none 6.9
human CD20 on cells [24] = biological target: T3, human CD20 on cells; assay: indirect FACS, FITC-GAH Fc, WSU-FSCCL cells; none 2.6
human CD20 on cells [25] = biological target: T3, human CD20 on cells; assay: indirect FACS, FITC-GAH Fc, Ramos cells; none 3.1
human CD20 on cells [26] = biological target: T3, human CD20 on cells; assay: indirect flow cytometry, FITC-GAH Fc, Ramos cells; none 3.1
human CD20 on cells [27] = biological target: T3, human CD20 on cells; assay: indirect FACS, FITC-GAH Fc, Daudi cells; none 3.1
human CD20 on cells [28] = biological target: T3, human CD20 on cells; assay: indirect FACS, FITC-GAH Fc, Namalwa cells; none 2.5
human CD20 on cells [29] = biological target: T3, human CD20 on cells; assay: indirect flow cytometry, FITC-GAH Fc, RL cells; none 2.4
human CD20 on cells [30] = biological target: T3, human CD20 on cells; assay: indirect flow cytometry, FITC-GAH Fc, Namalwa cells; none 2.6
human CD20 on cells [31] = biological target: T3, human CD20 on cells; assay: indirect flow cytometry, FITC-GAH Fc, SU-DHL-6 cells; none 4.6
human CD20 on cells [32] = biological target: T3, human CD20 on cells; assay: indirect flow cytometry, Namalwa cells, FITC-GAH; none 2.52
human CD20 on cells [33] = biological target: T3, human CD20 on cells; assay: indirect FACS, FITC-GAH Fc, SU-DHL-6 cells; none 4.6

B1: milatuzumab (hLL1, humanized anti-CD74 mAb) (antibody, V domains shown)
VH: QVQLQQSGSELKKPGASVKVSCKASGYTFTNYGVNWIKQAPGQGLQWMGWINPNTGEPTFDDDFKGRFAFSLDTSVSTAYLQISSLKADDTAVYFCSRSRGKNEAWFAYWGQGTLVTVSS
VL: DIQLTQSPLSLPVTLGQPASISCRSSQSLVHRNGNTYLHWFQQRPGQSPRLLIYTVSNRFSGVPDRFSGSGSGTDFTLKISRVEAEDVGVYFCSQSSHVPPTFGAGTRLEIK
Geometric Mean Fluorescence (human CD74 on cells [1]): 48.8 | Geometric Mean Fluorescence (human CD74 on cells [2]): 95.1 | Geometric Mean Fluorescence (human CD74 on cells [3]): 8.7 | Geometric Mean Fluorescence (human CD74 on cells [4]): 95.1 | Geometric Mean Fluorescence (human CD74 on cells [5]): 8.66 | Geometric Mean Fluorescence (human CD74 on cells [6]): 23.2 | Geometric Mean Fluorescence (human CD74 on cells [7]): 23.3 | Geometric Mean Fluorescence (human CD74 on cells [8]): 48.8 | Geometric Mean Fluorescence (human CD74 on cells [9]): 7.81 | Geometric Mean Fluorescence (human CD74 on cells [10]): 7.9 | Geometric Mean Fluorescence (human CD74 on cells [11]): 7.8 | Geometric Mean Fluorescence (human CD74 on cells [12]): 17.3 | GEO MEAN Fluorescence (human CD74 on cells [13]): 10.1 | Geometric Mean Fluorescence (human CD74 on cells [14]): 17.3

B2: epratuzumab (hLL2, humanized anti-CD22 mAb) (antibody, V domains shown)
VH: QVQLVQSGAEVKKPGSSVKVSCKASGYTFTSYWLHWVRQAPGQGLEWIGYINPRNDYTEYNQNFKDKATITADESTNTAYMELSSLRSEDTAFYFCARRDITTFYWGQGTTVTVSS
VL: DIQLTQSPSSLSASVGDRVTMSCKSSQSVLYSANHKNYLAWYQQKPGKAPKLLIYWASTRESGVPSRFSGSGSGTDFTFTISSLQPEDIATYYCHQYLSSWTFGGGTKLEIK
Geometric Mean Fluorescence (human CD22 on cells [15]): 4.1 | Geometric Mean Fluorescence (human CD22 on cells [16]): 6.4 | Geometric Mean Fluorescence (human CD22 on cells [17]): 11 | GEO MEAN Fluorescence (human CD22 on cells [18]): 6.76 | Geometric Mean Fluorescence (human CD22 on cells [19]): 11

B3: veltuzumab (hA20, humanized anti-CD20 mAb) (antibody, V domains shown)
VH: QVQLQQSGAEVKKPGSSVKVSCKASGYTFTSYNMHWVKQAPGQGLEWIGAIYPGMGDTSYNQKFKGKATLTADESTNTAYMELSSLRSEDTAFYYCARSTYYGGDWYFDVWGQGTTVTVSS
VL: DIQLTQSPSSLSASVGDRVTMTCRASSSVSYIHWFQQKPGKAPKPWIYATSNLASGVPVRFSGSGSGTDYTFTISSLQPEDIATYYCQQWTSNPPTFGGGTKLEIK
Geometric Mean Fluorescence (human CD20 on cells [20]): 241 | Geometric Mean Fluorescence (human CD20 on cells [21]): 267 | Geometric Mean Fluorescence (human CD20 on cells [22]): 8.9 | Geometric Mean Fluorescence (human CD20 on cells [23]): 267 | Geometric Mean Fluorescence (human CD20 on cells [24]): 8.91 | Geometric Mean Fluorescence (human CD20 on cells [25]): 204 | Geometric Mean Fluorescence (human CD20 on cells [26]): 204 | Geometric Mean Fluorescence (human CD20 on cells [27]): 241 | Geometric Mean Fluorescence (human CD20 on cells [28]): 10.1 | Geometric Mean Fluorescence (human CD20 on cells [29]): 128 | Geometric Mean Fluorescence (human CD20 on cells [30]): 10.1 | Geometric Mean Fluorescence (human CD20 on cells [31]): 1200 | GEO MEAN Fluorescence (human CD20 on cells [32]): 6.28 | Geometric Mean Fluorescence (human CD20 on cells [33]): 1200
